B1: HDAC6 (parent)
chain: QEGLLDRCVSFQARFAEKEELMLV
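Also: lentivirally expressed fusions sorted by FACS into six bins by GFP to DsRed ratio, PSI derived from sequencing read proportions per bin multiplied by bin number.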

Variants of: B1
Test: protein stability index of a GFP-peptide fusion (GPS, HEK-293T) (PSI 1-6); higher = more stable
Details: c terminus: a fixed tail appended
For QEYLLDRCVSFQARFAEKEELMLV [G3Y], the protein stability index was 1.31. In the case of QEQLLDRCVSFQARFAEKEELMLV [G3Q], the protein stability index is reported as 2.01. QECLLDRCVSFQARFAEKEELMLV [G3C] showed a protein stability index of 2.3. QEMLLDRCVSFQARFAEKEELMLV [G3M] showed a protein stability index of 2.04. For QEILLDRCVSFQARFAEKEELMLV [G3I], the protein stability index was 1.95. Variant QESLLDRCVSFQARFAEKEELMLV [G3S] has a protein stability index of 2.19. Variant QEGLEDRCVSFQARFAEKEELMLV [L5E] has a protein stability index of 3.01. For QEGLQDRCVSFQARFAEKEELMLV [L5Q], the protein stability index was 1.56. For QEGLADRCVSFQARFAEKEELMLV [L5A], the protein stability index was 1.87. Variant QEGLKDRCVSFQARFAEKEELMLV [L5K] has a protein stability index of 1.72. QEGLMDRCVSFQARFAEKEELMLV [L5M] gave a protein stability index of 1.73. With QEGLHDRCVSFQARFAEKEELMLV [L5H] the protein stability index was 1.67. With QEGLFDRCVSFQARFAEKEELMLV [L5F] the protein stability index was 1.33. Work on QEGLIDRCVSFQARFAEKEELMLV [L5I] yielded a protein stability index of 2.07. QEGLVDRCVSFQARFAEKEELMLV [L5V] showed a protein stability index of 2.06. With QEGLPDRCVSFQARFAEKEELMLV [L5P] the protein stability index was 1.83. In the case of QEGLGDRCVSFQARFAEKEELMLV [L5G], the protein stability index is reported as 1.71. Work on QEGLSDRCVSFQARFAEKEELMLV [L5S] yielded a protein stability index of 1.9. QEGLDDRCVSFQARFAEKEELMLV [L5D] gave a protein stability index of 2.62. Work on QEGLCDRCVSFQARFAEKEELMLV [L5C] yielded a protein stability index of 1.34. Work on QEGLWDRCVSFQARFAEKEELMLV [L5W] yielded a protein stability index of 1.58. QEGLTDRCVSFQARFAEKEELMLV [L5T] gave a protein stability index of 1.87. With QEGLYDRCVSFQARFAEKEELMLV [L5Y] the protein stability index was 1.79. With QEGLRDRCVSFQARFAEKEELMLV [L5R] the protein stability index was 1.78. Variant QEGLNDRCVSFQARFAEKEELMLV [L5N] has a protein stability index of 2.36. With KEGLLDRCVSFQARFAEKEELMLV [Q1K] the protein stability index was 1.39. With YEGLLDRCVSFQARFAEKEELMLV [Q1Y] the protein stability index was 1.25. In the case of TEGLLDRCVSFQARFAEKEELMLV [Q1T], the protein stability index is reported as 1.77. With LEGLLDRCVSFQARFAEKEELMLV [Q1L] the protein stability index was 2.33. Work on REGLLDRCVSFQARFAEKEELMLV [Q1R] yielded a protein stability index of 1.63. For PEGLLDRCVSFQARFAEKEELMLV [Q1P], the protein stability index was 2.13. WEGLLDRCVSFQARFAEKEELMLV [Q1W] showed a protein stability index of 1.47. For VEGLLDRCVSFQARFAEKEELMLV [Q1V], the protein stability index was 1.54. With IEGLLDRCVSFQARFAEKEELMLV [Q1I] the protein stability index was 2.48. Variant NEGLLDRCVSFQARFAEKEELMLV [Q1N] has a protein stability index of 1.91. With MEGLLDRCVSFQARFAEKEELMLV [Q1M] the protein stability index was 1.94. Work on SEGLLDRCVSFQARFAEKEELMLV [Q1S] yielded a protein stability index of 2.34. With QEGSLDRCVSFQARFAEKEELMLV [L4S] the protein stability index was 1.75. In the case of QEGKLDRCVSFQARFAEKEELMLV [L4K], the protein stability index is reported as 1.94. In the case of QEGPLDRCVSFQARFAEKEELMLV [L4P], the protein stability index is reported as 2.04. For QEGALDRCVSFQARFAEKEELMLV [L4A], the protein stability index was 1.62. QEGRLDRCVSFQARFAEKEELMLV [L4R] gave a protein stability index of 1.79. Work on QEGWLDRCVSFQARFAEKEELMLV [L4W] yielded a protein stability index of 1.5. With QEGVLDRCVSFQARFAEKEELMLV [L4V] the protein stability index was 1.9. Work on QEGTLDRCVSFQARFAEKEELMLV [L4T] yielded a protein stability index of 1.91. Work on QEGQLDRCVSFQARFAEKEELMLV [L4Q] yielded a protein stability index of 1.99. QEGFLDRCVSFQARFAEKEELMLV [L4F] showed a protein stability index of 2.47. QEGHLDRCVSFQARFAEKEELMLV [L4H] showed a protein stability index of 1.44. For QEGYLDRCVSFQARFAEKEELMLV [L4Y], the protein stability index was 2.01. In the case of QEGGLDRCVSFQARFAEKEELMLV [L4G], the protein stability index is reported as 1.43. QEGCLDRCVSFQARFAEKEELMLV [L4C] showed a protein stability index of 2.73. With QEGILDRCVSFQARFAEKEELMLV [L4I] the protein stability index was 1.79. For QEGELDRCVSFQARFAEKEELMLV [L4E], the protein stability index was 1.85. Variant QEGNLDRCVSFQARFAEKEELMLV [L4N] has a protein stability index of 2.06. With QEGMLDRCVSFQARFAEKEELMLV [L4M] the protein stability index was 2.19. Work on QEGDLDRCVSFQARFAEKEELMLV [L4D] yielded a protein stability index of 1.75. Variant QEGLLRRCVSFQARFAEKEELMLV [D6R] has a protein stability index of 2. For QEGLLCRCVSFQARFAEKEELMLV [D6C], the protein stability index was 1.78. With QEGLLTRCVSFQARFAEKEELMLV [D6T] the protein stability index was 1.64. QEGLLKRCVSFQARFAEKEELMLV [D6K] showed a protein stability index of 2.69. Variant QEGLLVRCVSFQARFAEKEELMLV [D6V] has a protein stability index of 2.06. QEGLLERCVSFQARFAEKEELMLV [D6E] showed a protein stability index of 1.84. Work on QEGLLFRCVSFQARFAEKEELMLV [D6F] yielded a protein stability index of 1.54. In the case of QEGLLQRCVSFQARFAEKEELMLV [D6Q], the protein stability index is reported as 1.87. With QEGLLMRCVSFQARFAEKEELMLV [D6M] the protein stability index was 1.87. Work on QEGLLHRCVSFQARFAEKEELMLV [D6H] yielded a protein stability index of 2.09. Work on QEGLLARCVSFQARFAEKEELMLV [D6A] yielded a protein stability index of 2.45. Work on QEGLLPRCVSFQARFAEKEELMLV [D6P] yielded a protein stability index of 1.38. QEGLLSRCVSFQARFAEKEELMLV [D6S] showed a protein stability index of 2.13. QEGLLLRCVSFQARFAEKEELMLV [D6L] showed a protein stability index of 1.9. QEGLLNRCVSFQARFAEKEELMLV [D6N] showed a protein stability index of 2.37. In the case of QEGLLYRCVSFQARFAEKEELMLV [D6Y], the protein stability index is reported as 1.95. QEGLLIRCVSFQARFAEKEELMLV [D6I] showed a protein stability index of 1.69. QEGLLGRCVSFQARFAEKEELMLV [D6G] showed a protein stability index of 1.74. QEGLLWRCVSFQARFAEKEELMLV [D6W] showed a protein stability index of 2.38. For QEGLLDRCVFFQARFAEKEELMLV [S10F], the protein stability index was 1.83. In the case of QEGLLDRCVAFQARFAEKEELMLV [S10A], the protein stability index is reported as 2.5. For QEGLLDRCVKFQARFAEKEELMLV [S10K], the protein stability index was 2.13. In the case of QEGLLDRCVCFQARFAEKEELMLV [S10C], the protein stability index is reported as 1.77. QEGLLDRCVMFQARFAEKEELMLV [S10M] gave a protein stability index of 1.64. QEGLLDRCVYFQARFAEKEELMLV [S10Y] gave a protein stability index of 2.56. QEGLLDRCVLFQARFAEKEELMLV [S10L] showed a protein stability index of 1.89. Work on QEGLLDRCVTFQARFAEKEELMLV [S10T] yielded a protein stability index of 2.31. With QEGLLDRCVEFQARFAEKEELMLV [S10E] the protein stability index was 2.17. With QEGLLDRCVPFQARFAEKEELMLV [S10P] the protein stability index was 1.99. Variant QEGLLDRCVRFQARFAEKEELMLV [S10R] has a protein stability index of 2.37. In the case of QEGLLDRCVGFQARFAEKEELMLV [S10G], the protein stability index is reported as 1.82. For QEGLLDRCVDFQARFAEKEELMLV [S10D], the protein stability index was 2.19. Variant QEGLLDRCVHFQARFAEKEELMLV [S10H] has a protein stability index of 1.75. With QEGLLDRCVQFQARFAEKEELMLV [S10Q] the protein stability index was 2.1. In the case of QEGLLDRCVWFQARFAEKEELMLV [S10W], the protein stability index is reported as 1.86. Variant QEGLLDRCVNFQARFAEKEELMLV [S10N] has a protein stability index of 1.66. With QEGLLDRCVVFQARFAEKEELMLV [S10V] the protein stability index was 1.45. QEGLLDRCVIFQARFAEKEELMLV [S10I] gave a protein stability index of 1.77.

Source: the supplement of paper PMC10567573
